Assay results: patent publication US20260234241A1
Like-named read-outs stand apart in the source and are kept apart here.

Columns and labels:
[1] = target: human BCMA (on cells) (human) (UniProt Q02223); assay: FACS on human BCMA-CHOK1 cells
[2] = target: cynomolgus monkey GPRC5D (cynomolgus monkey); assay: FACS on cynomolgus GPRC5D-CHOK1 cells
[3] = target: cynomolgus monkey BCMA (on cells) (cynomolgus monkey); assay: FACS on cynomolgus BCMA-CHOK1 cells
[4] = target: cynomolgus monkey GPRC5D (cynomolgus monkey); assay: FACS on cynomolgus GPRC5D-CHOK1 cells; remark: listed apart in the source
[5] = target: human BCMA (on cells) (human) (UniProt Q02223); assay: FACS on human BCMA-CHOK1 cells; remark: listed apart in the source
human GPRC5D (human) [6] = target: human GPRC5D (human) (UniProt Q9NZD1); assay: FACS on NCI-H929 cells (GPRC5D-expressing)
human GPRC5D (human) [7] = target: human GPRC5D (human) (UniProt Q9NZD1); assay: FACS on human GPRC5D-CHOK1 cells
[8] = target: cynomolgus monkey BCMA (on cells) (cynomolgus monkey); assay: FACS on cynomolgus BCMA-CHOK1 cells; remark: listed apart in the source
[9] = target: human BCMA (on cells) (human) (UniProt Q02223); assay: FACS on RPMI8226 cells (express BCMA and GPRC5D)
[10] = target: cynomolgus monkey CD3 (on cyno PBMCs) (cynomolgus monkey) (UniProt Q95LI5); assay: FACS on cyno PBMCs
[11] = target: human CD3 (on Jurkat cells and human PBMCs) (human) (UniProt P07766); assay: FACS on human PBMCs
[12] = target: human CD3 (on Jurkat cells and human PBMCs) (human) (UniProt P07766); assay: FACS on Jurkat cells
[13] = target: human BCMA (on cells) (human) (UniProt Q02223); assay: FACS on NCI-H929 cells (express BCMA and GPRC5D)
soluble BCMA = assay: cell-based or functional assay
[14] = target: RPMI8226 tumor cells expressing the dual targets BCMA and GPRC5D; assay: FACS on RPMI8226 cells (express BCMA and GPRC5D)
[15] = target: NCI-H929 tumor cells expressing the dual targets BCMA and GPRC5D; assay: FACS on NCI-H929 cells (express BCMA and GPRC5D)

Sequence of human CD3 (on Jurkat cells and human PBMCs) (human) (P07766 23-207): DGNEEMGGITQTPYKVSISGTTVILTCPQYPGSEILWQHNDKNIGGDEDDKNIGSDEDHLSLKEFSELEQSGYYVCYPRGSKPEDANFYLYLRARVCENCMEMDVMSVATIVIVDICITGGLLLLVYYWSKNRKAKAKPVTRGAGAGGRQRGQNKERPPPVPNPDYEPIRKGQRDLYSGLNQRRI
Sequence of human GPRC5D (human) (Q9NZD1 whole entry): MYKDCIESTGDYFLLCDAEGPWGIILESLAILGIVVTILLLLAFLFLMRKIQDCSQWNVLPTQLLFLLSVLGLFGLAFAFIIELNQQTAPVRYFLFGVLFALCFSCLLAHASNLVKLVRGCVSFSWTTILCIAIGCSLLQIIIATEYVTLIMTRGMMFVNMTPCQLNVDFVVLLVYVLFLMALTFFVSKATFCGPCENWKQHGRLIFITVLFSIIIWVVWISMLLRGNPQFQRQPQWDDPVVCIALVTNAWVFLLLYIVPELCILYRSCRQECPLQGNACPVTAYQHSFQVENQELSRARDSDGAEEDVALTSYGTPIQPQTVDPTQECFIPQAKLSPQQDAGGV
Sequence of cynomolgus monkey BCMA (on cells) (cynomolgus monkey) (Q02223 other isoform, or with tags, fused parts or gaps): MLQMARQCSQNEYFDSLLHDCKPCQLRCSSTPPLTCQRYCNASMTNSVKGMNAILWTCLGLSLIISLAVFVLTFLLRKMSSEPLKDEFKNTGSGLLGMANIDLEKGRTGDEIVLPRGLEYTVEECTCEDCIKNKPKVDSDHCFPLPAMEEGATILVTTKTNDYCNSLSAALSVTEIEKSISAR
Sequence of human BCMA (on cells) (human) (Q02223 whole entry): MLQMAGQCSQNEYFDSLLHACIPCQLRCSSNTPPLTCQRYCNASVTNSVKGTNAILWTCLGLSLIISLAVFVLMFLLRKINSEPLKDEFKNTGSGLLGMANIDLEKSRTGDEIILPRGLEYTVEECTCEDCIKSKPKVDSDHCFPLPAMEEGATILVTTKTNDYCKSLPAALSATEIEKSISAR
Sequence of cynomolgus monkey CD3 (on cyno PBMCs) (cynomolgus monkey) (Q95LI5 22-198): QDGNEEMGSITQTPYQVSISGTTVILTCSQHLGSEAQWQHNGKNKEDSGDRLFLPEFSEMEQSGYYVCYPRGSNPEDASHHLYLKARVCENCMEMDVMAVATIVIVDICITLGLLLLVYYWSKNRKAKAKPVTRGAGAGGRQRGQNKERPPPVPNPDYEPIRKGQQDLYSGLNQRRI
Sequence of cynomolgus monkey GPRC5D (cynomolgus monkey) (Q9NZD1 other isoform, or with tags, fused parts or gaps): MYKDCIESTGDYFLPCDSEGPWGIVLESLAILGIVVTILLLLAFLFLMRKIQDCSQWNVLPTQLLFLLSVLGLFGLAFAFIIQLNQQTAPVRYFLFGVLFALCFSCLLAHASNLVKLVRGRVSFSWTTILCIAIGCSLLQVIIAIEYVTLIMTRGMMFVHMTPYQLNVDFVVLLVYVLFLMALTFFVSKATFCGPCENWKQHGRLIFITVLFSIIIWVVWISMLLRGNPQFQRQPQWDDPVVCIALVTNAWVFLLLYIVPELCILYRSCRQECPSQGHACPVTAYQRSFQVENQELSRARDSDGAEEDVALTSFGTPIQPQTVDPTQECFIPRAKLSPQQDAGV

Top MFI [1]	Top MFI [2]	Top MFI [3]	Top MFI [4]	Top MFI [5]	Top MFI (human GPRC5D (human) [6])	Top MFI (human GPRC5D (human) [7])	Top MFI [8]	Top MFI [9]	Top MFI [10]	Top MFI [11]	Top MFI [12]	Top MFI [13]	Fold change of TDCC EC50 on NCI-H929 cells in the presence of 2500 ng/ml soluble BCMA (soluble BCMA)	Ratio (EC50) of TDCC on NCI-H929 cells, 2.5 ug/ml against 0 ug/ml soluble BCMA (soluble BCMA)	fold change of the TDCC EC50 on NCI-H929 cells in the presence of 2500 ng/ml soluble BCMA (soluble BCMA)	Top MFI [14]	Top MFI [15]	Substance
89.1	85	382	1840	232	178	36	82.6											IgG1 AA (antibody)
2280						160	1770	169	2060	672	825	669	25 fold	21 fold	25 fold			Teclistamab analogue (BCMA/CD3) (bispecific antibody)
119						100			93.3	96.1	77.6					112	104	hIgG1 LALA isotype (antibody)
